± gives the uncertainty stated by the source.
experiment: amyloid nucleation score (Sup35N fusion, yeast selection) (log enrichment); library NNK2; higher = more nucleation; inactive = no reads after selection
Method in brief: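 Psi-negative yeast expressed Sup35N fused to peptides of 20 random codons. They were induced 24 hours with 100 μM copper sulfate, grown 7 days at 30°C without adenine and uracil, and their plasmid inserts from input and output were Illumina-sequenced. The nucleation score is the DiMSum log enrichment of output over input reads, centred on the mode score of non-aggregating sequences. Sequences with under 100 input reads were excluded.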

Question: Which amyloid nucleation score does the source give for FPRSGYITHLDCATR here?
Answer: Its amyloid nucleation score is -0.589 ± 0.55.

Question: With FQDLDLVHRLHSVSVNLETE as the substance, how does the amyloid nucleation score read?
Answer: Its amyloid nucleation score is 0.123 ± 1.

Question: Which amyloid nucleation score does the source give for FQGEGISTAF here?
Answer: Its amyloid nucleation score is -1.32 ± 0.5.

Question: Which amyloid nucleation score does the source give for FQIREVGEVLNC here?
Answer: The amyloid nucleation score was -0.202 ± 1.1.

Question: For FQYYDKYLYWFFVNN, which amyloid nucleation score is on record?
Answer: The amyloid nucleation score was -2.12 ± 0.73.

Question: For FRCGRVTFNLVEYTFPPWIW, which amyloid nucleation score is on record?
Answer: Its amyloid nucleation score is -0.78 ± 0.63.

Question: With FRKEEADYHGYRLYSVAVNA as the substance, how does the amyloid nucleation score read?
Answer: The amyloid nucleation score was -0.214 ± 0.36.

Question: With FRKWNSS as the substance, how does the amyloid nucleation score read?
Answer: The amyloid nucleation score was 4.08 ± 0.072.

Question: Which amyloid nucleation score does the source give for FRLLWCMFSL here?
Answer: The amyloid nucleation score was 0.571 ± 0.13.

Question: Which amyloid nucleation score does the source give for FRLYPVPESKDLGRPGMPRQ here?
Answer: The amyloid nucleation score was 0.308 ± 0.23.

Question: Which amyloid nucleation score does the source give for FRMNEQSPAEWSRSVYFGGG here?
Answer: The amyloid nucleation score was -0.346 ± 0.49.

Question: For FRNENC, which amyloid nucleation score is on record?
Answer: Its amyloid nucleation score is “inactive”.

Question: For FRNNKLYIRVYRSKWTE, which amyloid nucleation score is on record?
Answer: The amyloid nucleation score was -1.22 ± 1.1.

Question: Which amyloid nucleation score does the source give for FRNSTATLYSVGSFTSKTQL here?
Answer: Its amyloid nucleation score is 1.03 ± 0.19.

Question: Which amyloid nucleation score does the source give for FRRQSPNMQPSCWTDHGLRG here?
Answer: The amyloid nucleation score was -0.105 ± 1.1.

Question: With FRSFRRIILSFYEVNFGSII as the substance, how does the amyloid nucleation score read?
Answer: Its amyloid nucleation score is “inactive”.

Question: Which amyloid nucleation score does the source give for FRSGCQFLWHERLNNNVTNA here?
Answer: The amyloid nucleation score was 1.54 ± 0.093.

Question: With FSAYLLLLYKN as the substance, how does the amyloid nucleation score read?
Answer: Its amyloid nucleation score is -0.738 ± 0.76.

Question: For FSCMISIKRFFRVAKNASGY, which amyloid nucleation score is on record?
Answer: Its amyloid nucleation score is 4.84 ± 0.084.

Question: With FSECLKTTENMKITQKGTPV as the substance, how does the amyloid nucleation score read?
Answer: Its amyloid nucleation score is 0.459 ± 0.54.

Question: With FSGSALGCEMRYCSRVYWQR as the substance, how does the amyloid nucleation score read?
Answer: The amyloid nucleation score was 4.46 ± 0.063.

Question: With FSITCADFICYSLVGGERTP as the substance, how does the amyloid nucleation score read?
Answer: Its amyloid nucleation score is 9.559 ± 0.066.

Question: For FSKGEATDCSWQ, which amyloid nucleation score is on record?
Answer: The amyloid nucleation score was 0.918 ± 0.34.

Question: Which amyloid nucleation score does the source give for FSMPTYSSALAFM here?
Answer: The amyloid nucleation score was -0.352 ± 0.28.

Question: With FSNISSSMKNKSVRGCECGR as the substance, how does the amyloid nucleation score read?
Answer: The amyloid nucleation score was -1.04 ± 0.33.

Question: With FSNSPVISFGQ as the substance, how does the amyloid nucleation score read?
Answer: Its amyloid nucleation score is -0.541 ± 1.

Question: With FSRGDIVA as the substance, how does the amyloid nucleation score read?
Answer: Its amyloid nucleation score is 4.41 ± 0.056.

Question: Which amyloid nucleation score does the source give for FSRLNSWILRSHGNKVKALT here?
Answer: Its amyloid nucleation score is 0.552 ± 0.66.

Question: For FSRLTGN, which amyloid nucleation score is on record?
Answer: The amyloid nucleation score was -0.883 ± 0.54.

Question: Which amyloid nucleation score does the source give for FSSILWRFSRLVVRSLVPKS here?
Answer: The amyloid nucleation score was 0.175 ± 0.27.

Question: Which amyloid nucleation score does the source give for FSSLIKTICLMTAMAEGMSP here?
Answer: Its amyloid nucleation score is -0.258 ± 0.76.

Question: With FSSSYP as the substance, how does the amyloid nucleation score read?
Answer: The amyloid nucleation score was “inactive”.

Question: For FSVLILFMLIWNNGCYLKED, which amyloid nucleation score is on record?
Answer: Its amyloid nucleation score is 1.94 ± 0.11.

Question: For FTASFFP, which amyloid nucleation score is on record?
Answer: Its amyloid nucleation score is 0.05 ± 0.26.

Question: Which amyloid nucleation score does the source give for FTCTGRRVYAQLKNVFIFVL here?
Answer: The amyloid nucleation score was 1.92 ± 0.19.

Question: For FTFILLGYVWRLLMYIPGMR, which amyloid nucleation score is on record?
Answer: Its amyloid nucleation score is 0.236 ± 1.1.

Question: For FTIFNKLCCVNYWVCILCYR, which amyloid nucleation score is on record?
Answer: Its amyloid nucleation score is 5.144 ± 0.049.

Question: For FTIHYAGTGCWMGMYINSDY, which amyloid nucleation score is on record?
Answer: The amyloid nucleation score was 2.44 ± 0.062.

Question: For FTILRDFC, which amyloid nucleation score is on record?
Answer: The amyloid nucleation score was 0.152 ± 0.77.

Question: For FTLLVYIFLYMMLIGNSFFM, which amyloid nucleation score is on record?
Answer: Its amyloid nucleation score is “inactive”.

Question: With FTNAPVLFVN as the substance, how does the amyloid nucleation score read?
Answer: The amyloid nucleation score was “inactive”.

Question: For FTNFNDYLFWNYMNWTGYML, which amyloid nucleation score is on record?
Answer: Its amyloid nucleation score is “inactive”.

Question: Which amyloid nucleation score does the source give for FTSMLS here?
Answer: Its amyloid nucleation score is 0.374 ± 0.64.

Question: With FTVLEHRMFILSYVLRTRVW as the substance, how does the amyloid nucleation score read?
Answer: The amyloid nucleation score was 0.468 ± 0.74.

Question: With FVFLFMRLKDGFYATIYISH as the substance, how does the amyloid nucleation score read?
Answer: The amyloid nucleation score was “inactive”.

Question: With FVFVAARAFCRSVSNVSD as the substance, how does the amyloid nucleation score read?
Answer: Its amyloid nucleation score is -0.399 ± 0.55.

Question: For FVLCT, which amyloid nucleation score is on record?
Answer: Its amyloid nucleation score is 1.15 ± 0.33.

Question: With FVLCYTTGFLVTFLLEWFFS as the substance, how does the amyloid nucleation score read?
Answer: The amyloid nucleation score was 0.228 ± 1.

Question: With FVLFENSGLFMGLDICMLCQ as the substance, how does the amyloid nucleation score read?
Answer: Its amyloid nucleation score is 1.01 ± 0.32.

Question: Which amyloid nucleation score does the source give for FVLLGGMTWHT here?
Answer: Its amyloid nucleation score is 5.512 ± 0.027.

Question: For FVLNYLI, which amyloid nucleation score is on record?
Answer: The amyloid nucleation score was 0.709 ± 0.17.

Question: With FVNATVLR as the substance, how does the amyloid nucleation score read?
Answer: Its amyloid nucleation score is 1.24 ± 0.16.

Question: With FVNLRVILH as the substance, how does the amyloid nucleation score read?
Answer: The amyloid nucleation score was 5.18 ± 0.052.

Question: For FVQSNYDSSF, which amyloid nucleation score is on record?
Answer: The amyloid nucleation score was “inactive”.

Question: Which amyloid nucleation score does the source give for FVSVIILCFCVIQPMNLNSV here?
Answer: The amyloid nucleation score was 1.4 ± 0.15.

Question: Which amyloid nucleation score does the source give for FVSYED here?
Answer: Its amyloid nucleation score is -0.793 ± 1.1.

Question: For FVYQCMCFNADLCFKFRLCS, which amyloid nucleation score is on record?
Answer: Its amyloid nucleation score is 7.883 ± 0.065.

Question: Which amyloid nucleation score does the source give for FVYTLAYNRRWYSRAVSFES here?
Answer: The amyloid nucleation score was -0.461 ± 0.79.

Question: Which amyloid nucleation score does the source give for FWEKSSKVFW here?
Answer: Its amyloid nucleation score is 3.33 ± 0.13.

Question: For FWHLYPQCQDWSDLQN, which amyloid nucleation score is on record?
Answer: The amyloid nucleation score was “inactive”.

Question: Which amyloid nucleation score does the source give for FWIEDF here?
Answer: Its amyloid nucleation score is -0.291 ± 1.1.

Question: For FWKNYQIMMRMCDKHVIEDV, which amyloid nucleation score is on record?
Answer: The amyloid nucleation score was 2.95 ± 0.11.

Question: With FWQSSLDSS as the substance, how does the amyloid nucleation score read?
Answer: The amyloid nucleation score was 0.213 ± 0.38.

Question: For FWSDSVVFRPDTVRLERSLG, which amyloid nucleation score is on record?
Answer: Its amyloid nucleation score is 0.025 ± 1.1.

Question: For FWVMANYRH, which amyloid nucleation score is on record?
Answer: The amyloid nucleation score was 3.18 ± 0.047.

Question: With FYATYSSLRLGVVTIIPPGL as the substance, how does the amyloid nucleation score read?
Answer: The amyloid nucleation score was 4.49 ± 0.087.

Question: With FYCCIITYLDMA as the substance, how does the amyloid nucleation score read?
Answer: Its amyloid nucleation score is 6.667 ± 0.026.

Question: With FYLGVALVHNKAWLFLWKDD as the substance, how does the amyloid nucleation score read?
Answer: Its amyloid nucleation score is “inactive”.

Question: For FYLKFHRCGR, which amyloid nucleation score is on record?
Answer: The amyloid nucleation score was 1.3 ± 0.11.

Question: With FYMLASPSSTLDSTPKVRSC as the substance, how does the amyloid nucleation score read?
Answer: Its amyloid nucleation score is -0.665 ± 1.1.

Question: For FYPWDSVCEFSLGCMSNPQA, which amyloid nucleation score is on record?
Answer: Its amyloid nucleation score is 0.158 ± 0.3.

Question: For FYRHCFVVTNKRAPSKSRSK, which amyloid nucleation score is on record?
Answer: Its amyloid nucleation score is 4.61 ± 0.11.

Question: Which amyloid nucleation score does the source give for FYRNPHR here?
Answer: Its amyloid nucleation score is 0.706 ± 0.81.

Question: For FYYSLTMRLD, which amyloid nucleation score is on record?
Answer: Its amyloid nucleation score is -0.322 ± 0.42.

Question: For FYYYLFFLAIISCTGYLALS, which amyloid nucleation score is on record?
Answer: Its amyloid nucleation score is 0.286 ± 0.42.

Question: With GAHFYRTVMNVRSTLSRYIN as the substance, how does the amyloid nucleation score read?
Answer: Its amyloid nucleation score is -0.507 ± 0.48.

Question: For GAHNMREGAAPGRKRVVLAM, which amyloid nucleation score is on record?
Answer: The amyloid nucleation score was 1.22 ± 0.35.

Question: Which amyloid nucleation score does the source give for GALVR here?
Answer: The amyloid nucleation score was -1.08 ± 0.55.

Question: With GAMDLHQWASMMNMFPAMCV as the substance, how does the amyloid nucleation score read?
Answer: Its amyloid nucleation score is 0.731 ± 0.47.

Question: For GASRVAPVCQTTKSLKCMAK, which amyloid nucleation score is on record?
Answer: Its amyloid nucleation score is -1.17 ± 1.1.

Question: With GATRALRSVTRR as the substance, how does the amyloid nucleation score read?
Answer: The amyloid nucleation score was 3.26 ± 0.13.

Question: With GCDLYL as the substance, how does the amyloid nucleation score read?
Answer: Its amyloid nucleation score is -0.256 ± 0.79.

Question: Which amyloid nucleation score does the source give for GCFERGNLFNFV here?
Answer: The amyloid nucleation score was “inactive”.

Question: With GCGFFDFSVSWL as the substance, how does the amyloid nucleation score read?
Answer: The amyloid nucleation score was -1.24 ± 0.78.

Question: Which amyloid nucleation score does the source give for GCKVIYIYIIHIFKCIITNW here?
Answer: Its amyloid nucleation score is “inactive”.

Question: With GCVCDVGPVTVRGVNGVLVS as the substance, how does the amyloid nucleation score read?
Answer: The amyloid nucleation score was 1.45 ± 0.26.

From the supplement of paper PMC12042874
